# Results from the supplement of paper PMC10567573.
# ± gives the standard deviation.
# Experiment: protein stability index of a GFP-peptide fusion (GPS, HEK-293T) (PSI 1-6); higher = more stable
# Details: c terminus: a fixed tail appended
# 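Further: 24-mer peptide tiles fused after GFP, lentivirally expressed, FACS-sorted into six equal bins by GFP/DsRed ratio, decoded by Illumina sequencing, PSI is the read-weighted mean bin number.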
Sequence,protein stability index (treatment: DMSO),"protein stability index (treatment: MLN4924 1 uM, 8 h)"
NSHQDFWTVWSGNRASLYSFPEPE [PRAME],2.49 ± 0.19,2.67 ± 0.38
SPVVAMTSRRSGVGLAVVNGQLMA [KLHL20],2.88 ± 0.36,2.95 ± 0.43
EANNLAAAASAKDIYYNNMEEVCG [ATL3],4.69 ± 0.26,4.68 ± 0.18
KLHYPELYVLKGGYKEFFMKCQSY [CDC25A],2.42 ± 0.5,2.04 ± 0.33
DRKARKPLVEKKRRARINESLQEL [HES6],4.37 ± 0.22,4.71 ± 0.13
GVGKAIEEELQEIASEPTNKHLFY [MATN2],4.75 ± 0.37,4.46 ± 0.11
EALGLEAEGAVPETQTLTGWSKGF [RHOBTB1],3.79 ± 0.098,4.05 ± 0.27
ERTGFSIRPVAGYLSPRDFLSGLA [TPH1],2.25 ± 0.048,2.36 ± 0.35
TLNQLQSLQNSLECAMETTEEQTR [NECAB1],4.94 ± 0.13,4.97 ± 0.28
TCTLLLLYSLAPTMGAVVLSSTLL [MFSD9],3.22 ± 0.52,3.17 ± 0.28
ICFCCEEFQPAKCTDKENALKLFP [FAM189A2],2.37 ± 0.036,2.58 ± 0.25
PGVHRRYSALREESAKDWETSPLP [PPFIA4],4.04 ± 0.31,4.43 ± 0.27
CHLAHELRLSCMERKKVQIRSMDP [DCAF4],2.39 ± 0.25,2.42 ± 0.2
AMYIDTEGTFRPERLLAVAERYGL [RAD51],2.37 ± 0.19,2.39 ± 0.27
LEQFVAILPKELQTWVRDHHPENG [ZNF24],3.2 ± 0.1,3.23 ± 0.21
IRCVYILDPWFAGSSNVGINRWRF [CRY1],3.13 ± 0.51,3.06 ± 0.51
NWRYATGGWETVFRPVSETCTDRS [FUT8],2.21 ± 0.42,3 ± 0.67
VAPPEDKESESEAKVDGETASDSE [CDS2],5.55 ± 0.23,5.61 ± 0.18
SAKPASLRLLQHTPSARRNYRIAG [C6orf223],3.43 ± 0.24,3.75 ± 0.22
MLVDGIDPNFKMEHQNKRSPLHAA [EHMT1],3.41 ± 0.39,3.67 ± 0.31
RRERNNIAVRKSRDKAKMRNLETQ [CEBPB],4.28 ± 0.18,4.5 ± 0.19
ETIKDLMRQFLRGLDFLHANCIVH [CDK4],3.06 ± 0.64,3.23 ± 0.56
CGDVHGQFHDLMELFRIGGKSPDT [PPP2CA],2.69 ± 0.34,2.84 ± 0.15

Sequence,protein stability index (treatment: DMSO),"protein stability index (treatment: MLN4924 1 uM, 8 h)"
RPMSEPGAGAGSSLLDVAEPGGPG [SMAD6],5.11 ± 0.3,5.39 ± 0.16
ENKDHSLERGRASLIFSLKNEVGG [TPH1],4.09 ± 0.18,3.82 ± 0.38
GRGGEPRAYFMSDTREEKRFLGEG [CHGB],4.23 ± 0.2,4.44 ± 0.27
ACRFQEDQEMARDLVERALYSMEC [TCF25],2.34 ± 0.57,2.49 ± 0.53
TADEIPMEPGDIIGVAGNHWDGYS [FUT8],4.21 ± 0.32,4.16 ± 0.23
AEGRTGFPWIDAIMTQLRQEGWIH [CRY1],2.35 ± 0.3,2.13 ± 0.33
RFAWPKVLKISYKRNNFYIKIRPG [EPB41L3],2.89 ± 0.63,2.2 ± 0.82
DNPSVLSGPMQAALQAAAHASVDI [SMG5],4.05 ± 0.14,4.29 ± 0.26
QAQIELRLLELMNQHDTEMKYYIV [DYRK1B],2.24 ± 0.23,2.49 ± 0.47
CPIIRIPNRFLRGHRPPPARSGHR [KLHDC10],2.68 ± 0.69,3.32 ± 0.85
LIKKYSDHLENVSKLVESGIQFMD [TRIM55],2.27 ± 0.18,2.66 ± 0.2
TQKLSKIETLRLAKNYIWALSEIL [NEUROD6],2.61 ± 0.49,2.67 ± 0.47
HVSDEDNNADLCLTDDKQVLNTQG [DLC1],5.34 ± 0.23,5.46 ± 0.13
MLLGVPRLRQLKVRNDSCVVHEDF [PKD2L1],2.46 ± 0.33,2.52 ± 0.32
AQMAKAAAEERALFTDRMATRSTT [WEE1],4.8 ± 0.21,4.87 ± 0.25
LGYLLLGAATNVFLFVLARVPAGI [MFSD9],3.29 ± 0.69,2.94 ± 0.4
EEDKRRKGEEVTPISAIRHEGKTD [EPB41L3],5.59 ± 0.23,5.66 ± 0.13
AATQALPQDSGTAAWKGRVLLPET [C22orf31],4.11 ± 0.062,4.1 ± 0.24
LLQHLLEACGRCEEVPEAYVDIHT [PYCR3],2.1 ± 0.48,2.42 ± 0.66
VVEVTKGILEHVDSASPVEDTSND [M1AP],5.54 ± 0.23,5.47 ± 0.31
RSAMSGASQPRGPALLFPATRGVP [TRIB1],3.554 ± 0.019,4.14 ± 0.29
VENRVVEEAKGLLDKVKDGGYRPA [ZBED1],4.82 ± 0.13,4.94 ± 0.094
